Assay results: the supplement of paper PMC9732359
± gives the uncertainty stated by the source.

Assay: protein stability index of a GFP-peptide fusion (yeast GPS) (PSI 1-4); higher = more stable; sorted into four equal gates, so the index is relative within each strain
Conditions: san1∆
Method in brief: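 Tiled 17-residue yeast protein peptides were fused downstream of GFP in a plasmid that also expresses Cherry, and the pooled library was carried in yeast. Mid-log cultures in leucine-free medium were sorted into four equal gates by GFP/Cherry fluorescence ratio, and plasmids from each gate were PCR-amplified and Illumina-sequenced, with reads assigned to strains by barcodes. The protein stability index for each peptide was each gate's read frequency times its gate number, summed.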

Row | Sequence | protein stability index
1 | TTTKIIDSTDHIRKASS [LRP1] | 1.64 ± 0.066
2 | TTTSNTSGTNIAGTFNV [YOR098C/NUP1] | 2.5 ± 0.051
3 | TTTTTTTNNNNTNNNNT [SWI1] | 3.303 ± 0.021
4 | TVAHIQYDFKAVLEEND [RPN14] | 2.26 ± 0.11
5 | TVALREIRRFQKSTELL [HHT1] | 3.07 ± 0.068
6 | TVKLTEIVWTSSLIKAG [RPO31] | 1.24 ± 0.14
7 | TVLVIDNSEYSRNGDFP [RPN10] | 1.48 ± 0.098
8 | TVNEPQMSDKHATVVPP [SRB7] | 2.89 ± 0.093
9 | TVPNLPTTMVTNQKDTN [ISW2] | 1.51 ± 0.1
10 | TVQSWLCDLFVNGSITD [NUT1] | 1.48 ± 0.086
11 | TVSPDFVAATTNAGYTI [FAS1] | 2.32 ± 0.12
12 | TVSPTQDKDAIRKQPDD [SIR2] | 2.99 ± 0.067
13 | TWENEFLDSQRVWAEYA [PRP8] | 2.13 ± 0.11
14 | TWNGSPFDNSTEEKCKN [YJL039C/NUP192] | 3.26 ± 0.066
15 | TWYVGNSRGKFDDACNQ [SSN2] | 2.9 ± 0.11
16 | TYGFSILDIVINNPVNL [FAS1] | 2.53 ± 0.092
17 | TYIKSEITQQEKGLNEL [SMC4] | 2.75 ± 0.092
18 | TYRSRAQQVPPYGVYHP [SIN4] | 2.8 ± 0.063
19 | VAAAGITASTLLYADSL [CYT1] | 1.75 ± 0.14
20 | VAAFVNNYPNVELTYSL [BRR2] | 2.74 ± 0.082
21 | VAALKAVGAHSDLLKVL [RPL4A] | 2.71 ± 0.1
22 | VAALRFTAGARAKIVKA [RPL18A] | 1.24 ± 0.2
23 | VAASIIPFPDHNQSPRN [RPB2] | 2.33 ± 0.12
24 | VADEEANIELTWAEGTF [RPC37] | 1.81 ± 0.097
25 | VAEIEKTADVKRQYVKQ [RPL20A] | 2.94 ± 0.13
26 | VAIDQDKITLHDEKTLA [SIR4] | 2.26 ± 0.17

Row | Sequence | protein stability index
27 | VAMCFVINKLDRLILDL [SNU114] | 2.15 ± 0.096
28 | VARIPRVGGGGTGRSGQ [RPL4A] | 3.48 ± 0.072
29 | VASADYESQTFSSKNEW [PRP8] | 2.85 ± 0.18
30 | VASLSKRNKLLTIFDSV [YJL039C/NUP192] | 2.28 ± 0.063
31 | VATEPLLDILVKGETRI [PRP8] | 2.94 ± 0.06
32 | VCIRPSVMMQDSPASNE [RPO31] | 1.94 ± 0.11
33 | VDAITRCYQPFELFDNK [SNU114] | 2.96 ± 0.049
34 | VDFEKFETFLVDVNNKF [SIN4] | 3.51 ± 0.037
35 | VDIQIINQYQLLYNLKN [SWI1] | 1.49 ± 0.086
36 | VDKNGAHLYMLEPSGSY [PRE10] | 2.92 ± 0.063
37 | VDNDNWVYKTKGDGMTS [RPN1] | 3 ± 0.071
38 | VDNIVNKYQYSLKQYAG [SRP68] | 2.71 ± 0.068
39 | VDPFDSDEEESVLDEQE [SNU114] | 3.39 ± 0.15
40 | VDQEMLYEIILAANYLN [SKP1] | 1.92 ± 0.093
41 | VDSRNETDHKTNENGET [SRB4] | 2.77 ± 0.098
42 | VDSWDREFLKVDQEMLY [SKP1] | 3.21 ± 0.1
43 | VDTSTELESMLEDLKNT [RRP6] | 3.46 ± 0.11
44 | VEEKPGDRGALARASGN [RPL2A] | 3.37 ± 0.092
45 | VEELPTFHDYDMVKLDI [RRP42] | 2.87 ± 0.045
46 | VEFKLPKELVPSHEKLK [CDC53] | 2.24 ± 0.071
47 | VEITFGKEFGDVSVKMG [RRP45] | 1.32 ± 0.19
48 | VEKTEKPKKPKGRAYKR [RPS30A] | 3.07 ± 0.06
49 | VEMAWIMGFISYHNGNL [FAS2] | 3.29 ± 0.063
50 | VEPVTERTKLQEHTIFT [SNU114] | 1.8 ± 0.21
51 | VEQTAEVTIEDALKVVL [RPS12] | 3.19 ± 0.049
52 | VETNTTVLADEFIAHRL [RPB3] | 3.19 ± 0.04

Row | Sequence | protein stability index
53 | VEVDITLSPNVTDSSLL [GRR1] | 2.99 ± 0.053
54 | VFALHKYKPTPLYVMDE [SMC4] | 3.09 ± 0.076
55 | VFEISENNSDSNSNNNG [SWI1] | 3.15 ± 0.12
56 | VFERFKTKILEVAIRDV [IRR1] | 1.43 ± 0.14
57 | VFESLEINNLIQLPASL [ARP9] | 1.83 ± 0.077
58 | VFLEFSLNFIPITASTS [YML103C/NUP188] | 1.62 ± 0.097
59 | VFLYFEDNAGVIANPKG [RPL23A] | 2.27 ± 0.12
60 | VFSHAQTAVTCESCSTV [RPS27B] | 2.24 ± 0.15
61 | VFYAPNVKNYSTTQEIL [RPC34] | 3.02 ± 0.082
62 | VFYRGMTMQVAVPRDEL [FAS1] | 2 ± 0.072
63 | VGFLVQLDLTGIFLHGK [PRP8] | 2.33 ± 0.058
64 | VGGTTSISGFKEALLGQ [ARP9] | 2.51 ± 0.048
65 | VGRLWDQTFPINCNKET [ECM29] | 3.07 ± 0.11
66 | VGSENVECTISILRKSS [SNF12] | 2.43 ± 0.044
67 | VHLSNGYKMIPGAKPLQ [FAS1] | 1.8 ± 0.088
68 | VHPRKSYKMNSSAADIT [PRP8] | 2.88 ± 0.053
69 | VHVIHFQHADNSSMRYG [AAR2] | 2.32 ± 0.11
70 | VIDTLAAGYGKILGKGR [RPL28] | 3.11 ± 0.17
71 | VIEEDYDDEQNTSAQHV [IRR1] | 3.12 ± 0.08
72 | VIFDASIKDTQNVGQGK [BRN1] | 2.61 ± 0.13
73 | VIIKGFKTYRNETIIDN [SMC3] | 2.94 ± 0.17
74 | VIKLAKYPDYFPEWKKS [ARP9] | 2.82 ± 0.064
75 | VIPSYSKWFNLEKIHSI [SWI3] | 1.44 ± 0.075
76 | VISFGQPKLNPMASSSS [SWI1] | 2.61 ± 0.11
77 | VISIVGGHSLEEISFSL [PRP28] | 3.19 ± 0.091
78 | VISNLVPKLESSRTKFW [YJL039C/NUP192] | 2.48 ± 0.28

Row | Sequence | protein stability index
79 | VIVPQIVLDEVRNKSYP [DIS3] | 2.79 ± 0.11
80 | VKAILMQRHVKVDGKVR [RPS4A] | 3.55 ± 0.2
81 | VKESNNYYSNKSNSTGN [REC8] | 2.56 ± 0.07
82 | VKEYQLRDRNFSATGNF [RPL11A] | 2.85 ± 0.28
83 | VKIMRDPAKSRTGPKAL [RPS3] | 3.06 ± 0.1
84 | VKKPTFTFGQSTSENKI [YOR098C/NUP1] | 3.14 ± 0.2
85 | VKLWEEDPDQEECSGRR [YGL100W/SEH1] | 3.37 ± 0.04
86 | VKSKIQDKEGIPPDQQR [RPS31] | 3.41 ± 0.051
87 | VKTTLVSLTQLRCVKYL [RPC82] | 1.16 ± 0.25
88 | VKVHMDSETSDPNEVEI [DIS3] | 3.5 ± 0.077
89 | VLDSYTPSTNEPYARVS [FAS1] | 2.71 ± 0.066
90 | VLEYLAAEILELAGNAA [HTA1] | 2.54 ± 0.081
91 | VLISKLSCEKITHYAVR [RRI1] | 1.66 ± 0.07
92 | VLKACGILSDLEIMQLV [RET1] | 1.46 ± 0.22
93 | VLKEKDVPAYNVTSFMP [SRB8] | 3.03 ± 0.051
94 | VLKKPNRAMEYDALLSI [RET1] | 1.69 ± 0.28
95 | VLPNTALKTSIQHVGMI [FAS1] | 1.93 ± 0.14
96 | VLRINKMLSCAGADRLQ [RPL10] | 1.17 ± 0.21
97 | VLRIPEEYLDANVFRLE [MTW1] | 3.19 ± 0.072
98 | VLSPDSNIMSDSKKIKV [GAL11] | 2.44 ± 0.12
99 | VLSTFTAEFGKILAGLH [RPN10] | 3.1 ± 0.14
100 | VMKQVETLVLDEADKMI [PRP28] | 3.42 ± 0.13
101 | VMLLGTPDANLISKPAK [UBP6] | 2.98 ± 0.13
102 | VMRNEIRITSLQGDLTF [SIR4] | 2.65 ± 0.081
103 | VNAPLPTPFKVDDNVDF [RPN2] | 2.74 ± 0.08
